We go through three molecules from paper doi:10.1101/2022.12.30.522300 (bioRxiv, 2022).

Test [1] concerns the target RBM17–UHM (RBM17/ΔNΔG), from pETM11 (human). The experiment in a line: ITC. (In general: ITC needs no label: the signal is the heat of the interaction.)
Test [2] addresses T1, full-length RBM17, from pETM11 (human, UniProt Q96I25 1-401).
T1 sequence (looked up): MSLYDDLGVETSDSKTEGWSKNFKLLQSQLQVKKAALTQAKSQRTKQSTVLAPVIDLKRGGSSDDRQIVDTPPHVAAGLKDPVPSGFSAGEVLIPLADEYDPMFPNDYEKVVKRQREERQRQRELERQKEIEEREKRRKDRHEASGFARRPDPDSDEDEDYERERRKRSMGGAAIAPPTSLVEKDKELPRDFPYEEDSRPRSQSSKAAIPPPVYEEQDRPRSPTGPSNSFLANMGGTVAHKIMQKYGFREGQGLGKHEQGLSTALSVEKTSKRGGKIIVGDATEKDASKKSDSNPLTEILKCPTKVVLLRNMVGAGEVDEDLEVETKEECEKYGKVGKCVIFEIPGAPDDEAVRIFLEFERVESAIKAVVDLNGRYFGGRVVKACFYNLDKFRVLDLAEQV
The experiment in a line: NMR titration.

The target of a further test is T2, GST-RBM17 (human, UniProt Q96I25 1-401).
T2 sequence (looked up): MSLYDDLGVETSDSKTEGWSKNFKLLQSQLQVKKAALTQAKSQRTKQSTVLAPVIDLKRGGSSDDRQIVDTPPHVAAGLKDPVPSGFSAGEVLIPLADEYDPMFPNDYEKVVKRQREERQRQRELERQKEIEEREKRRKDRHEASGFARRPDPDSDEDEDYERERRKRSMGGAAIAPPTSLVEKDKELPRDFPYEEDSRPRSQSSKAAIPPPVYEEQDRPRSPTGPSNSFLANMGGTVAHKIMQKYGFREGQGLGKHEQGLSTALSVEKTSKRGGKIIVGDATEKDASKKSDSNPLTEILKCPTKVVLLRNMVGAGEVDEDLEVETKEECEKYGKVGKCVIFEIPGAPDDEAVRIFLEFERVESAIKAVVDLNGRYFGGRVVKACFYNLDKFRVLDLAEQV
Description: pull-down.

In general, Kd refers to the equilibrium constant for the complex coming apart. Higher therefore signals a looser complex.

In test [1], SAP30BP/ULM (domain or fragment) displayed a Kd of 34.4 µM. This lies in the double-digit micromolar range.

B1: full-length SAP30BP, from pETM11 (natural protein, human, UniProt Q9UHR5 1-308, looked up)
chain: MAGKKNVLSSLAVYAEDSEPESDGEAGIEAVGSAAEEKGGLVSDAYGEDDFSRLGGDEDGYEEEEDENSRQSEDDDSETEKPEADDPKDNTEAEKRDPQELVASFSERVRNMSPDEIKIPPEPPGRCSNHLQDKIQKLYERKIKEGMDMNYIIQRKKEFRNPSIYEKLIQFCAIDELGTNYPKDMFDPHGWSEDSYYEALAKAQKIEMDKLEKAKKERTKIEFVTGTKKGTTTNATSTTTTTASTAVADAQKRKSKWDSAIPVTTIAQPTILTTTATLPAVVTVTTSASGSKTTVISAVGTIVKKAKQ
On to B1, for which the binding result in test [2] was “binds”.

B2: recombinant SAP30BP (GST tag removed) (natural protein, human, UniProt Q9UHR5 1-308, looked up)
chain: MAGKKNVLSSLAVYAEDSEPESDGEAGIEAVGSAAEEKGGLVSDAYGEDDFSRLGGDEDGYEEEEDENSRQSEDDDSETEKPEADDPKDNTEAEKRDPQELVASFSERVRNMSPDEIKIPPEPPGRCSNHLQDKIQKLYERKIKEGMDMNYIIQRKKEFRNPSIYEKLIQFCAIDELGTNYPKDMFDPHGWSEDSYYEALAKAQKIEMDKLEKAKKERTKIEFVTGTKKGTTTNATSTTTTTASTAVADAQKRKSKWDSAIPVTTIAQPTILTTTATLPAVVTVTTSASGSKTTVISAVGTIVKKAKQ
For the molecule B2, in the test with GST-RBM17, the binding result is recorded as “binds”.
